Results reported in patent publication US20210246166A1 (Bayer, published 2021).
Numbered stars: 1 amine (or outer) side, 2 acyl side, 3 side chain; on linkers, the order of the positions; unused ones are H or OH. Bridge positions count the residues as written; N and C are the ends. Square brackets hold non-standard residues; d marks the D form. Ends that are not written are not given here. NH(CH2CH2O)5CH2CO = O=C(COCCOCCOCCOCCOCCN[*:1])[*:2]; PEG9 = NCCOCCOCCOCCOCCOCCOCCOCCOCCOCCC(=O)O; Oic = O=C(O)[C@@H]1C[C@@H]2CCCC[C@@H]2N1; PEG8 = NCCOCCOCCOCCOCCOCCOCCOCCOCCC(=O)O; tBuAla = CC(C)(C)C[C@H](N)C(=O)O; Pen = CC(C)(S)[C@H](N)C(=O)O; PEG2 = NCCOCCOCCC(=O)O; Sar = CNCC(=O)O

T1: Recombinant rat MASP1 enzyme (fragment corresponding to amino acids 302-704, C-terminal His Tag) (rat, UniProt Q8CHN8 302-704)
T1 sequence: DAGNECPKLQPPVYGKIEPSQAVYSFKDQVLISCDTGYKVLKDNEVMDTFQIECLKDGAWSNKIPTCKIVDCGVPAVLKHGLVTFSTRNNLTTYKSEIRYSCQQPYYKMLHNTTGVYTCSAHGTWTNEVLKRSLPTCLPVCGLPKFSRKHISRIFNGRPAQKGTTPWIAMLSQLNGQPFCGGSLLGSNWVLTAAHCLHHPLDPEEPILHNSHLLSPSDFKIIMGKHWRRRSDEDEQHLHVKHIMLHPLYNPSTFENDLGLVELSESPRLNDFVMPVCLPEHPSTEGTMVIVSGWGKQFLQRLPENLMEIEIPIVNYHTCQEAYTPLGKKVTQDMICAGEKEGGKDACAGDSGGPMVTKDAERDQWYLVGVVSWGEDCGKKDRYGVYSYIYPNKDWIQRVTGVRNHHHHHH

T2: Recombinant human MASP1 active protease (amino acids 297-699, C-terminal His Tag) (human, UniProt P48740 297-699)
T2 sequence: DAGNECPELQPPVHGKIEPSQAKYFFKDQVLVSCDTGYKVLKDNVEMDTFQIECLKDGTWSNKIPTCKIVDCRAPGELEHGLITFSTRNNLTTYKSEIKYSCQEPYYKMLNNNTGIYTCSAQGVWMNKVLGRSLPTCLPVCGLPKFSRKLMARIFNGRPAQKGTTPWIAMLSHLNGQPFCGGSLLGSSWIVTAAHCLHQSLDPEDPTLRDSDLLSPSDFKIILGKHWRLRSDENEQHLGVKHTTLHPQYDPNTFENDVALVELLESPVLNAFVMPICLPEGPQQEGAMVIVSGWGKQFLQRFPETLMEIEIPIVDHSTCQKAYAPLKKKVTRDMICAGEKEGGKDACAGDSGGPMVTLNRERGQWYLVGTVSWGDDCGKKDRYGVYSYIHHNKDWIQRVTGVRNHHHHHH

T3: Recombinant human MASP1 enzyme (fragment corresponding to amino acids 297-699, C-terminal His Tag) (human, UniProt P48740 297-699)
T3 sequence: T2 sequence

B1: GIC+SRSLPPIC+IPD-OH (peptide)
peptide: GICSRSLPPICIPD-OH
modifications: disulfide 3-11; N-terminus assumed
SMILES: CC[C@H](C)[C@H](NC(=O)CN)C(=O)N[C@H]1CSSC[C@@H](C(=O)N[C@H](C(=O)N2CCC[C@H]2C(=O)N[C@@H](CC(=O)O)C(=O)O)[C@@H](C)CC)NC(=O)[C@H]([C@@H](C)CC)NC(=O)[C@@H]2CCCN2C(=O)[C@@H]2CCCN2C(=O)[C@H](CC(C)C)NC(=O)[C@H](CO)NC(=O)[C@H](CCCNC(=N)N)NC(=O)[C@H](CO)NC1=O
B2: AIC+SRSLPPIC+IPD-OH (peptide)
peptide: AICSRSLPPICIPD-OH
modifications: disulfide 3-11; N-terminus assumed
SMILES: CC[C@H](C)[C@H](NC(=O)[C@H](C)N)C(=O)N[C@H]1CSSC[C@@H](C(=O)N[C@H](C(=O)N2CCC[C@H]2C(=O)N[C@@H](CC(=O)O)C(=O)O)[C@@H](C)CC)NC(=O)[C@H]([C@@H](C)CC)NC(=O)[C@@H]2CCCN2C(=O)[C@@H]2CCCN2C(=O)[C@H](CC(C)C)NC(=O)[C@H](CO)NC(=O)[C@H](CCCNC(=N)N)NC(=O)[C@H](CO)NC1=O
B3: AIC+SRSLPPIC+IPD-NH2 (peptide)
peptide: AICSRSLPPICIPD-NH2
modifications: disulfide 3-11; N-terminus assumed
SMILES: CC[C@H](C)[C@H](NC(=O)[C@H](C)N)C(=O)N[C@H]1CSSC[C@@H](C(=O)N[C@H](C(=O)N2CCC[C@H]2C(=O)N[C@@H](CC(=O)O)C(N)=O)[C@@H](C)CC)NC(=O)[C@H]([C@@H](C)CC)NC(=O)[C@@H]2CCCN2C(=O)[C@@H]2CCCN2C(=O)[C@H](CC(C)C)NC(=O)[C@H](CO)NC(=O)[C@H](CCCNC(=N)N)NC(=O)[C@H](CO)NC1=O
B4: ((N-Me)G)-IC+SRS-((tBu)A)-PPI-(Pen)+IP-(PEG1(10 atoms))-OH (peptide)
peptide: [Sar]ICSRS[tBuAla]PPI[Pen]IP[PEG2]-OH
modifications: disulfide 3-11; N-terminus assumed
SMILES: CC[C@H](C)[C@H](NC(=O)CNC)C(=O)N[C@H]1CSSC(C)(C)[C@@H](C(=O)N[C@H](C(=O)N2CCC[C@H]2C(=O)NCCOCCOCCC(=O)O)[C@@H](C)CC)NC(=O)[C@H]([C@@H](C)CC)NC(=O)[C@@H]2CCCN2C(=O)[C@@H]2CCCN2C(=O)[C@H](CC(C)(C)C)NC(=O)[C@H](CO)NC(=O)[C@H](CCCNC(=N)N)NC(=O)[C@H](CO)NC1=O
B5: ((N-Me)G)-IC+SRS-((tBu)A)-PPI-(Pen)+IP-(PEG5-CH2CO2H(18 atoms))-OH (peptide)
peptide: [Sar]ICSRS[tBuAla]PPI[Pen]IP[NH(CH2CH2O)5CH2CO]-OH
modifications: disulfide 3-11; N-terminus assumed
SMILES: CC[C@H](C)[C@H](NC(=O)CNC)C(=O)N[C@H]1CSSC(C)(C)[C@@H](C(=O)N[C@H](C(=O)N2CCC[C@H]2C(=O)NCCOCCOCCOCCOCCOCC(=O)O)[C@@H](C)CC)NC(=O)[C@H]([C@@H](C)CC)NC(=O)[C@@H]2CCCN2C(=O)[C@@H]2CCCN2C(=O)[C@H](CC(C)(C)C)NC(=O)[C@H](CO)NC(=O)[C@H](CCCNC(=N)N)NC(=O)[C@H](CO)NC1=O
B6: ((N-Me)G)-IC+SRS-((tBu)A)-PPI-(Pen)+IP-((N-Me)G)-((N-Me)G)-((N-Me)G)-OH (peptide)
peptide: [Sar]ICSRS[tBuAla]PPI[Pen]IP[Sar][Sar][Sar]-OH
modifications: disulfide 3-11; N-terminus assumed
SMILES: CC[C@H](C)[C@H](NC(=O)CNC)C(=O)N[C@H]1CSSC(C)(C)[C@@H](C(=O)N[C@H](C(=O)N2CCC[C@H]2C(=O)N(C)CC(=O)N(C)CC(=O)N(C)CC(=O)O)[C@@H](C)CC)NC(=O)[C@H]([C@@H](C)CC)NC(=O)[C@@H]2CCCN2C(=O)[C@@H]2CCCN2C(=O)[C@H](CC(C)(C)C)NC(=O)[C@H](CO)NC(=O)[C@H](CCCNC(=N)N)NC(=O)[C@H](CO)NC1=O
B7: ((N-Me)G)-IC+SRSLP-(Oic)-I-(Pen)+IPGd-OH (peptide)
peptide: [Sar]ICSRSLP[Oic]I[Pen]IPG[dD]-OH
modifications: disulfide 3-11; N-terminus assumed
SMILES: CC[C@H](C)[C@H](NC(=O)CNC)C(=O)N[C@H]1CSSC(C)(C)[C@@H](C(=O)N[C@H](C(=O)N2CCC[C@H]2C(=O)NCC(=O)N[C@H](CC(=O)O)C(=O)O)[C@@H](C)CC)NC(=O)[C@H]([C@@H](C)CC)NC(=O)[C@@H]2C[C@@H]3CCCC[C@@H]3N2C(=O)[C@@H]2CCCN2C(=O)[C@H](CC(C)C)NC(=O)[C@H](CO)NC(=O)[C@H](CCCNC(=N)N)NC(=O)[C@H](CO)NC1=O

biological target: T1, Recombinant rat MASP1 enzyme (fragment …); assay: cell-based or functional assay

| rat MASP1 IC50 [nM] | Binder |
| --- | --- |
| 68.6 | B1 |
| 50.2 | B2 |
| 210 | AICSRSLPPICIPD-NH2 (disulfide 3-11; also: HCl salt) [AIC+SRSLPPIC+IPD-NH2 (HCl Salt)] |
| 83.4 | B3 |

biological target: Recombinant rat MASP2 enzyme (fragment corresponding to amino acids 296-685, C-terminal His Tag) (rat, UniProt Q9JJS8 296-685); assay: cell-based or functional assay
Sequence (Q9JJS8 other isoform, or with tags, fused parts or gaps limits assumed): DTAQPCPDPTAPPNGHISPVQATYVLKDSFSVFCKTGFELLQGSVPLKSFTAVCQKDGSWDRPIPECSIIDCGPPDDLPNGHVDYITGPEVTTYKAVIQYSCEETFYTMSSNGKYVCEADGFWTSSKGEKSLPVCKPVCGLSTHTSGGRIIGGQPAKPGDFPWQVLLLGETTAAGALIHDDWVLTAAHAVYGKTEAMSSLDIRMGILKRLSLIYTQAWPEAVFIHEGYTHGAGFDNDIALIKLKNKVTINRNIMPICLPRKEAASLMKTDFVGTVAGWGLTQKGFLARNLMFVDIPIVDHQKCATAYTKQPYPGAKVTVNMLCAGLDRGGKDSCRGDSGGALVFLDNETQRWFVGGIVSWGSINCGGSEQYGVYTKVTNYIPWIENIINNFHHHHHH

| rat MASP2 IC50 [nM] | Binder |
| --- | --- |
| 68 | B1 |
| 68.4 | B2 |
| 54.2 | B3 |

biological target: T2, Recombinant human MASP1 active protease …; assay: cell-based or functional assay

| human MASP1 IC50 (FRET substrate cleavage, enzyme activity) [nM] | Binder |
| --- | --- |
| 7.45 | AICSRSLPPICIPD-OH (disulfide 3-11; also: TFA salt) [Ala-1 SFMI-1, AIC+SRSLPPIC+IPD-OH (Reference No A)] |
| 18 | GICSRSLPPICIPD-OH (disulfide 3-11; also: HCl salt) [SFMI-1 HCl, GIC+SRSLPPIC+IPD-OH (HCl Salt) (Reference No 2)] |
| 18 | GICSRSLPPICIPD-NH2 (disulfide 3-11; also: TFA salt) [SFMI-1 amide, GIC+SRSLPPIC+IPD-NH2 (Reference No 3)] |
| 15.6 | GICSRSLPPICIPD-OH (disulfide 3-11; also: TFA salt) [SFMI-1, GIC+SRSLPPIC+IPD-OH (Reference No 1)] |
| 8 | AICSRSLPPICIPD-NH2 (disulfide 3-11; also: TFA salt) [Ala-1 SFMI-1 amide, AIC+SRSLPPIC+IPD-NH2 (Reference No B)] |
| 3.6 | AICSRSLPPICIPD-NH2 (disulfide 3-11; also: HCl salt) [Ala-1 SFMI-1 HCl amide, AIC+SRSLPPIC+IPD-NH2 (HCl Salt) (Reference No C)] |

biological target: Recombinant human MASP2 active protease (amino acids 297-686, C-terminal His Tag) (human, UniProt O00187 297-686); assay: cell-based or functional assay
Sequence (O00187 other isoform, or with tags, fused parts or gaps limits assumed): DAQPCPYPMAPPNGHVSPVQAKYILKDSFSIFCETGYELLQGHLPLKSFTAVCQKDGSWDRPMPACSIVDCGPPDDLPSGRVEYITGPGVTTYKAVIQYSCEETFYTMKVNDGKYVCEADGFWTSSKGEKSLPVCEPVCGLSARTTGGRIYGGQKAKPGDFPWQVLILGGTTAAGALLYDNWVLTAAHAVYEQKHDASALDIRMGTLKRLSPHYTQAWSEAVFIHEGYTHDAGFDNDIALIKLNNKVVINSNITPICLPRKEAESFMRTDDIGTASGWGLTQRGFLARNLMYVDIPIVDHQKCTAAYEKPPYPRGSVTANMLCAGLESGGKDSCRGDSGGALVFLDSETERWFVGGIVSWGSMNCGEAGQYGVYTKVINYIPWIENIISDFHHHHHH

| human MASP2 IC50 (FRET substrate cleavage, enzyme activity) [nM] | Binder |
| --- | --- |
| 914 | AICSRSLPPICIPD-OH (disulfide 3-11; also: TFA salt) [Ala-1 SFMI-1, AIC+SRSLPPIC+IPD-OH (Reference No A)] |
| 610 | GICSRSLPPICIPD-OH (disulfide 3-11; also: HCl salt) [SFMI-1 HCl, GIC+SRSLPPIC+IPD-OH (HCl Salt) (Reference No 2)] |
| 610 | GICSRSLPPICIPD-NH2 (disulfide 3-11; also: TFA salt) [SFMI-1 amide, GIC+SRSLPPIC+IPD-NH2 (Reference No 3)] |
| 1090 | GICSRSLPPICIPD-OH (disulfide 3-11; also: TFA salt) [SFMI-1, GIC+SRSLPPIC+IPD-OH (Reference No 1)] |
| 390 | AICSRSLPPICIPD-NH2 (disulfide 3-11; also: TFA salt) [Ala-1 SFMI-1 amide, AIC+SRSLPPIC+IPD-NH2 (Reference No B)] |
| 3000 | AICSRSLPPICIPD-NH2 (disulfide 3-11; also: HCl salt) [Ala-1 SFMI-1 HCl amide, AIC+SRSLPPIC+IPD-NH2 (HCl Salt) (Reference No C)] |

biological target: T3, Recombinant human MASP1 enzyme …; assay: cell-based or functional assay

| human MASP1 IC50 [nM] | Binder |
| --- | --- |
| 2.3 | B4 |
| 2 | B5 |
| 6.3 | [Sar]ICSRS[tBuAla]PPI[Pen]IP-{PEG9-OH} (disulfide 3-11) [((N-Me)G)-IC+SRS-((tBu)A)-PPI-(Pen)+IP-(PEG9(31 atoms))-OH] |
| 2.3 | B6 |
| 7.9 | [Sar]ICSRS[tBuAla]PPI[Pen]IP-{PEG8-OH} (disulfide 3-11) [((N-Me)G)-IC+SRS-((tBu)A)-PPI-(Pen)+IP-(PEG8(28 atoms))-OH] |
| 3.4 | B7 |

biological target: Recombinant human MASP2 enzyme (fragment corresponding to amino acids 297-686, C-terminal His Tag) (human, UniProt O00187 297-686); assay: cell-based or functional assay
Sequence (O00187 other isoform, or with tags, fused parts or gaps limits assumed): as above

| human MASP2 IC50 [nM] | Binder |
| --- | --- |
| 39 | B4 |
| 31 | B5 |
| 62 | [Sar]ICSRS[tBuAla]PPI[Pen]IP-{PEG9-OH} (disulfide 3-11) [((N-Me)G)-IC+SRS-((tBu)A)-PPI-(Pen)+IP-(PEG9(31 atoms))-OH] |
| 47 | B6 |
| 76 | [Sar]ICSRS[tBuAla]PPI[Pen]IP-{PEG8-OH} (disulfide 3-11) [((N-Me)G)-IC+SRS-((tBu)A)-PPI-(Pen)+IP-(PEG8(28 atoms))-OH] |
| 37 | B7 |
